In patent US20090035321A1, “Intercellular adhesion molecules and their binding ligands” (Boehringer Ingelheim Pharmaceuticals, Inc., published 2009):

How the values were obtained:
Assay in all cases: 35S-HRV14 on COS cells
ICAM-1 D213GL/HGV = ICAM-1 D213GL/HGV (human, UniProt P05362)
Experimental: (§1) COS cells were seeded into 10 cm tissue culture plates such that they would be 50% confluent by 16-24 hrs. COS cells were then washed once with TBS and incubated for 4 hrs with 4 ml RPMI containing 10% Nu sera (Collaborative) 5 pg/ml chloroquine, 3 μg of mutant plasmid and 200 μg/ml DEAE-dextran sulfate. Cells were then washed with 10% DMSO/PBS followed by PBS and cultured 16 hrs in culture media. Culture media was replaced with fresh media and at 48 hrs post transfection (OS cells were suspended by trypsin/EDTA (Gibco) treatment and divided into 2, 10 cm plates as well as 24 well tissue culture plates for HRV binding. At 72 hrs cells were harvested from 10 cm plates with 5 mM EDTA/HBSS and processed for adhesion to LFA-1 coated plastic and immunofluorescence.
(§2) Binding occurred in 1 hr at 35° C. in a 5% CO₂ atmosphere with horizontal rotation (100 rpm). Unbound [³⁵S] HRV14 was aspirated, COS cells were gently washed with 150 ml of HRV buffer and then solubilized with 1% SDS in PBS for scintillation counting.
(§3) In Table 25, the notation for the mutations uses the one-letter code for the wild-type sequence followed by a slash and the one-letter code for the corresponding mutant sequence. The position of the first amino acid within the sequence is indicated. Wild type residues precede the slash followed by the residues they were substituted for in the mutant. COS cells expressing ICAM-1 mutants were tested for adherence to LFA-1 coated plastic and for binding 35S met-labeled HRV14. […] Binding is presented as mean and standard error (SE) for multiple experiments (n). […] The specific linear fluorescence intensity (SLFI) of CL203 for each mutant is normalized to that of wild type CL203 SLFI (% WT) as discussed above. The SLFI of RR1/1, R6.5 and LB-2 SLFI is normalized to the CL203 SLFI of the mutant (% CL203) as described above.

ICAM-1 E90/K = ICAM-1 E90/K (human, UniProt P05362)
Experimental: as §1, §2, §3

ICAM-1 E127/R = ICAM-1 E127/R (human, UniProt P05362)
Experimental: as §1, §2, §3

ICAM-1 E87/K = ICAM-1 E87/K (human, UniProt P05362)
Experimental: as §1, §2, §3

ICAM-1 N56V/HM = ICAM-1 N56V/HM (human, UniProt P05362)
Experimental: as §1, §2, §3

ICAM-1 N156/E = ICAM-1 N156/E (human, UniProt P05362)
Experimental: as §1, §2, §3

ICAM-1 A189T/SI = ICAM-1 A189T/SI (human, UniProt P05362)
Experimental: as §1, §2, §3

ICAM-1 Y83/S = ICAM-1 Y83/S (human, UniProt P05362)
Experimental: as §1, §2, §3

ICAM-1 Q1/E = ICAM-1 Q1/E (human, UniProt P05362)
Experimental: as §1, §2, §3

ICAM-1 R149RD/EEG = ICAM-1 R149RD/EEG (human, UniProt P05362)
Experimental: as §1, §2, §3

ICAM-1 Y52/F = ICAM-1 Y52/F (human, UniProt P05362)
Experimental: as §1, §2, §3

ICAM-1 M64/I = ICAM-1 M64/I (human, UniProt P05362)
Experimental: as §1, §2, §3

ICAM-1 N175TSA/QTLG = ICAM-1 N175TSA/QTLG (human, UniProt P05362)
Experimental: as §1, §2, §3

ICAM-1 K50V/EL = ICAM-1 K50V/EL (human, UniProt P05362)
Experimental: as §1, §2, §3

ICAM-1 N118/Q = ICAM-1 N118/Q (human, UniProt P05362)
Experimental: as §1, §2, §3

ICAM-1 G101K/AN = ICAM-1 G101K/AN (human, UniProt P05362)
Experimental: as §1, §2, §3

ICAM-1 S177/G = ICAM-1 S177/G (human, UniProt P05362)
Experimental: as §1, §2, §3

ICAM-1 D60/N = ICAM-1 D60/N (human, UniProt P05362)
Experimental: as §1, §2, §3

ICAM-1 R13/Q = ICAM-1 R13/Q (human, UniProt P05362)
Experimental: as §1, §2, §3

ICAM-1 K77T/ES = ICAM-1 K77T/ES (human, UniProt P05362)
Experimental: as §1, §2, §3

ICAM-1 N103/K = ICAM-1 N103/K (human, UniProt P05362)
Experimental: as §1, §2, §3

ICAM-1 R125/E = ICAM-1 R125/E (human, UniProt P05362)
Experimental: as §1, §2, §3

ICAM-1 R88V/EA = ICAM-1 R88V/EA (human, UniProt P05362)
Experimental: as §1, §2, §3

ICAM-1 S3/T = ICAM-1 S3/T (human, UniProt P05362)
Experimental: as §1, §2, §3

ICAM-1 Q58/H = ICAM-1 Q58/H (human, UniProt P05362)
Experimental: as §1, §2, §3

ICAM-1 V4/G = ICAM-1 V4/G (human, UniProt P05362)
Experimental: as §1, §2, §3

ICAM-1 E90/Q = ICAM-1 E90/Q (human, UniProt P05362)
Experimental: as §1, §2, §3

ICAM-1 D71/E = ICAM-1 D71/E (human, UniProt P05362)
Experimental: as §1, §2, §3

ICAM-1 D26QPK/ALPE = ICAM-1 D26QPK/ALPE (human, UniProt P05362)
Experimental: as §1, §2, §3

B1: human rhinovirus 14 (HRV14) (other)
chain: GAQVSTQKSGSHENQNILTNGSNQTFTVINYYKDAASTSSAGQSLSMDPSKFTEPVKDLMLKGAPALNSPNVEACGYSDRVQQITLGNSTITTQEAANAVVCYAEWPEYLPDVDASDVNKTSKPDTSVCRFYTLDSKTWTTGSKGWCWKLPDALKDMGVFGQNMFFHSLGRSGYTVHVQCNATKFHSGCLLVVVIPEHQLASHEGGNVSVKYTFTHPGERGIDLSSANEVGGPVKDVIYNMNGTLLGNLLIFPHQFINLRTNNTATIVIPYINSVPIDSMTRHNNVSLMVIPIAPLTVPTGATPSLPITVTIAPMCTEFSGIRSKSIVPQGLPTTTLPGSGQFLTTDDRQSPSALPNYEPTPRIHIPGKVHNLLEIIQVDTLIPMNNTHTKDEVNSYLIPLNANRQNEQVFGTNLFIGDGVFKTTLLGEIVQYYTHWSGSLRFSLMYTGPALSSAKLILAYTPPGARGPQDRREAMLGTHVVWDIGLQSTIVMTIPWTSGVQFRYTDPDTYTSAGFLSCWYQTSLILPPETTGQVYLLSFISACPDFKLRLMKDTQTISQTVALTEGLGDELEEVIVEKTKQTVASISSGPKHTQKVPILTANETGATMPVLPSDSIETRTTYMHFNGSETDVECFLGRAACVHVTEIQNKDATGIDNHREAKLFNDWKINLSSLVQLRKKLELFTYVRFDSEYTILATASQPDSANYSSNLVVQAMYVPPGAPNPKEWDDYTWQSASNPSVFFKVGDTSRFSVPYVGLASAYNCFYDGYSHDDAETQYGITVLNHMGSMAFRIVNEHDEHKTLVKIRVYHRAKHVEAWIPRAPRALPYTSIGRTNYPKNTEPVIKKRKGDIKSY
modifications: [35S]-Met labeled
HRV Binding % (ICAM-1 D213GL/HGV): 99 % of wild type
HRV Binding % (ICAM-1 E90/K): 50 % of wild type
HRV Binding % (ICAM-1 E127/R): 131 % of wild type
HRV Binding % (ICAM-1 E87/K): 27 % of wild type
HRV Binding % (ICAM-1 N56V/HM): 101 % of wild type
HRV Binding % (ICAM-1 N156/E): 107 % of wild type
HRV Binding % (ICAM-1 A189T/SI): 168 % of wild type
HRV Binding % (ICAM-1 Y83/S): 86 % of wild type
HRV Binding % (ICAM-1 Q1/E): 149 % of wild type
HRV Binding % (ICAM-1 R149RD/EEG): 139 % of wild type
HRV Binding % (ICAM-1 Y52/F): 174 % of wild type
HRV Binding % (ICAM-1 M64/I): 107 % of wild type
HRV Binding % (ICAM-1 N175TSA/QTLG): 40 % of wild type
HRV Binding % (ICAM-1 K50V/EL): 10 % of wild type
HRV Binding % (ICAM-1 N118/Q): 110 % of wild type
HRV Binding % (ICAM-1 G101K/AN): 140 % of wild type
HRV Binding % (ICAM-1 S177/G): 66 % of wild type
HRV Binding % (ICAM-1 D60/N): 89 % of wild type
HRV Binding % (ICAM-1 R13/Q): 60 % of wild type
HRV Binding % (ICAM-1 K77T/ES): 42 % of wild type
HRV Binding % (ICAM-1 N103/K): 13 % of wild type
HRV Binding % (ICAM-1 R125/E): 157 % of wild type
HRV Binding % (ICAM-1 R88V/EA): 152 % of wild type
HRV Binding % (ICAM-1 S3/T): 196 % of wild type
HRV Binding % (ICAM-1 Q58/H): 1 % of wild type
HRV Binding % (ICAM-1 V4/G): 30 % of wild type
HRV Binding % (ICAM-1 E90/Q): 157 % of wild type
HRV Binding % (ICAM-1 D71/E): 140 % of wild type
HRV Binding % (ICAM-1 D26QPK/ALPE): 13 % of wild type
